Assay [1] concerns the target BCMA-CAR with a CD3zeta signaling motif on CAR-Jurkat cells. In words: cell-based or functional assay.
Assay [2] addresses anti-CD19 chimeric antigen receptor (CAR) on Jurkat NFAT-GFP cells. As to the kind of experiment: cell-based or functional assay.

“BCMAwt-Fc fusion protein (pDP39-BCMA ECD-FC)”: the IC50 of inhibition of BCMA-CAR-Jurkat cell activation (CD69) by NCI-H929 cells in assay [1] was 0.036 µM.
As for “CD19 wt-Fc (pDP10 CD19-WT FC) (Fc fusion)”, in assay [2], the IC50 of inhibition of CAR-Jurkat activation (NFAT-GFP) by K562 cells came out at 0.2 µM and the NFAT-GFP downregulated at the maximum concentration tested was determined as 30%.

Values taken from patent US20260078162A1.
